Target: DS-Cav1 (soluble trimeric RSV prefusion F ectodomain) (respiratory syncytial virus | bacteriophage T4) (UniProt P03420)
Experiment: native gel or EMSA; native-PAGE and native western blot of the purified soluble RSV F protein

DS-Cav1 (soluble trimeric RSV prefusion F ectodomain) (from UniProt P03420 26-513)
stoichiometry N: 3

— article PMC12172430
